Assay: yeast display, Sf9 membrane polyspecificity reagent, FACS + sequencing; frameworks hold sequencing errors
Outline: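 After 36–48 hours of galactose induction, yeast (Saccharomyces cerevisiae BJ5465) displaying a synthetic nanobody library were stained at 4 °C for 1 hour with 10% biotinylated, detergent-solubilized Sf9 membrane reagent. Streptavidin microbeads enriched the stained cells before FACS sorting into low and high (top ~1%) gates on anti-HA and streptavidin fluorescence. Each clone's polyreactivity label reflects its gate of origin.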

Sequence | polyreactivity (PSR sort gate)
QVQLVESGGGLVQAGGSLRLSCAASGRIFGIYAMGWYRQAPGKERELVAAINSGDSTYADSVKGRFTISRDNAKNTVYLQMNSLKPEDTAVYYCAAEESTSSWSINDYWGQGTQVNVSS | low polyreactivity
QVQLVESGGGLVQAGGSLRLSCAASGRIFGIYAMGWYRQAPGKERELVAAITWNGGSTYYADSVKGRFTNSRDNAKNTVYLQMNSLKPEDTAVYYCAARTADYSYGRRVVTRYGYWGQGTQVTVSS | high polyreactivity
QVQLVESGGGLVQAGGSLRLSCAASGRIFGIYAMGWYRQAPGKERELVASITDGTITNYADSVKGRFTISRDNAKNTVYLQMNSLIPEDTAVYYCAAGTQAHAYVVRPIEMDYWGQGTQVTVSS | low polyreactivity
QVQLVESGGGLVQAGGSLRLSCAASGRIFGLNAMGRYRQAPGKERELVAAISERDGSTYYADSVKGRFTISRDNAKNTVYLQMNSLKPEDTAVYYCAAEKPVHYVRGVHYDYWGQGTQVTVSS | low polyreactivity
QVQLVESGGGLVQAGGSLRLSCAASGRIFGLNAMGWYRQAPGKERELVAAIDRSGASTYYADSVKGRFTISRDNAKNTVYLQMNSLKPEDTAVYYCAAESYLSGEEYDYWGQGTQVTVSS | high polyreactivity
QVQLVESGGGLVQAGGSLRLSCAASGRIFGLNTMGWYRQAPGKERELVAAITSSAGSTYYADSVKGRFTISRDNAKNTVYLQMNSLKPEDTAVYYCAARVSYLGSFTSQRYYYWGQGTQVTVSS | high polyreactivity
QVQLVESGGGLVQAGGSLRLSCAASGRIFGLYAMGWYRQAPGKARELVAAISTRGGSTRYADSVKGRFTISRDTAKNTVYLQMNSLKPEDTAVYYCAKQPKPPPVTGYDYWGQGTQVTVSS | high polyreactivity
QVQLVESGGGLVQAGGSLRLSCAASGRIFGLYAMGWYRQAPGKERELVAAIRGRGGRTSYADSVKGRFTISRDNAKNTVYLQMNSLKPEDTAVYYCNAELYPWPGVVRYNYWGHGTQVTVSS | high polyreactivity
QVQLVESGGGLVQAGGSLRLSCAASGRIFGLYAMGWYRQAPGKERELVAAISRRGGTTYYADSVKGRFTISRDNAKNTVYLQMNSLKPEDTAVYYCAAATVYLSWYYWGQGTQVTVSS | high polyreactivity
QVQLVESGGGLVQAGGSLRLSCAASGRIFGLYAMGWYRQAPGKERELVAAISWSGGRTYYADSVKGRFTISRDNAKNNVYLQMNSLKPEDTAVYYCAARSYYRSQYGFDYWGQGTQVTVSS | high polyreactivity
QVQLVESGGGLVQAGGSLRLSCAASGRIFGLYAMGWYRQAPGKERELVAAITSSTGSTYYADSVKGRFTISRDNAKNTVYLQMNSLKPEDTAVYYCAARRYGRNWHYDYWGQGTQVTVSS | high polyreactivity
QVQLVESGGGLVQAGGSLRLSCAASGRIFGLYARGWSRQAPGKERELVAAYADSVKGRFTISRENAKNTVYLQMNSLKPEDTAVYYCAKGPLYAGYSIDLRDFNYWGQGTQVTVSS | low polyreactivity
QVQLVESGGGLVQAGGSLRLSCAASGRIFGNNAMGWYRQAPGKERELVAAITSGGSTNYADSVKGRFTISRDNAKNTVYLQMNSLKPEDTAVYYCAKRWVYKYRHYDYWGQGTQVTVSS | low polyreactivity
QVQLVESGGGLVQAGGSLRLSCAASGRIFGNYAMGWYRQAPGKERELVAAITSGARTYYADSVKGRFTISRDNAKNTVYLQMNSLKPEDTAVYYCAAYHKSYSNRYDYWGQGTHVTVSS | high polyreactivity
QVQLVESGGGLVQAGGSLRLSCAASGRIFGPNAMGWYRQAPGKERELVASISYSGGSTYYADSVKGRFTISRDNAKNTVYLQMNSLKPEDTAVYYCAKGGYWRGYNYWGQGTQVTVSS | low polyreactivity
QVQLVESGGGLVQAGGSLRLSCAASGRIFGPYAMGWYRPAPGKERELVAVISLSGGRTYYADSVKGRFTISRDNAKNTVYLQMNSLKPEDTAVYYCAAARIYVGRRFDFWGQGTQVTVSS | high polyreactivity
QVQLVESGGGLVQAGGSLRLSCAASGRIFGPYAMGWYRQAPGKERELVAAISWSGGSTYYADSVKGRFTISRDNAKNTVYLQMNSLKPEDTAVYYCAARERRVYGDRFYKLDYWGQGTQVTVSS | high polyreactivity
QVQLVESGGGLVQAGGSLRLSCAASGRIFGPYTMGWYRQAPGKERELVAAISWSGGSTYYADSVKGRFTISRDNAKNTVYLQMNSLKPEDTAVYYCNADHPFPQYEGGSWGQGTQVTVSS | low polyreactivity
QVQLVESGGGLVQAGGSLRLSCAASGRIFGPYTMGWYRQAPGKERELVARISRRGGSTYYADSVKGRFTISRDNAKNTVYLQMNSLKPEDTAVYYCARSQAVYDGWFAKFGYWGQGTQVTVSS | low polyreactivity
QVQLVESGGGLVQAGGSLRLSCAASGRIFGRNAMGWYRQAPGKERELVAAISSSGGRTYYADSVKGRFTISRDNAKNTVYLQMNSLKPEDTAVYYCAAVGSLYYYRYDYWGQGTQVTVSS | high polyreactivity
QVQLVESGGGLVQAGGSLRLSCAASGRIFGRNTMGWYRQAPGKERELVAVISFRGGSTYADSVKGRFTISRDNAKNTVYLQMNSLKPEDTAVYYCARTAYSTRPYRFDYWGQGTQVTVSS | high polyreactivity
QVQLVESGGGLVQAGGSLRLSCAASGRIFGRYAMGWYRQAPGKERELVAAISRRGGTTYYADSVKGRFTISRDNAKNTVYLQMNSLKPEDTAVYSSNADTYGYGFDYWGQGTQVTVSS | high polyreactivity

Sequence | polyreactivity (PSR sort gate)
QVQLVESGGGLVQAGGSLRLSCAASGRIFGRYAMGWYRQAPGKERELVASIRSRGGSTYYADSVKGRFTISRDNAKNTVYLQMNSLIPEDTAVYYCAKTVTSGYYYAGRYDYWGQGTQVTVSS | high polyreactivity
QVQLVESGGGLVQAGGSLRLSCAASGRIFGRYAMGWYRQAPGKERELVASISTGGGGTYYADSVKGRFTISRDNAKNTVYLQMNSLKPEDTAVYYCAKAWRGFWTKYDYWGQGTQVTVSS | low polyreactivity
QVQLVESGGGLVQAGGSLRLSCAASGRIFGRYAMGWYRQAPGNERELVAAISSTGGRTYYADSVKGRFTISRDNAKNTVYLQMTSLKPEDTAVYYCAATYVHYPSMGYDYWGQGTQVTVSS | high polyreactivity
QVQLVESGGGLVQAGGSLRLSCAASGRIFGRYTMGWYRQAPGKERELVAAISARGGSPNYADSVKGRFTISRDNAKNTVYLQLNSLIPEDTAVYYCNTVRVHGFPIDRIYDYWGQVTQVTVSS | high polyreactivity
QVQLVESGGGLVQAGGSLRLSCAASGRIFGSYAMGSYRQAPGKERELVAAINWRGGSTFYADSVKGRFTISRDNAKNTVYLQMNSLKPEDTAVYYCARRGYRQSGDYWGQGTQVTVSS | low polyreactivity
QVQLVESGGGLVQAGGSLRLSCAASGRIFGSYAMGWYIQAPGTERELVAAINRRGGSTFYADSVKGRFTISRDNAKNSVYLQMNSLKPEDTAVYYCARRGYRQSGDYWGQGTQVTLSS | low polyreactivity
QVQLVESGGGLVQAGGSLRLSCAASGRIFGSYAMGWYRQAPGKERELVAAINWRGGSTFYADSVKGRFTISRDNAKNTVYLQMNSLKPEDTAVYYCARRGYRQSGDYWGQGTEVTVSS | low polyreactivity
QVQLVESGGGLVQAGGSLRLSCAASGRIFGSYAMGWYRQAPGKERELVAAISGGGSTNYADSVKGRFTISRDNAKNTVYLQMNSLKPEDSAVYYCTADRGFAVIVLYGYWGQGTQVTVSS | low polyreactivity
QVQLVESGGGLVQAGGSLRLSCAASGRIFGSYAMGWYRQAPGKERELVAAISRSGVSTYYADSVKGRFTISRDNAKNTVYLQMNSLKPEDTAVYYCAAYYRYASDYWGQGTQVTVSS | low polyreactivity
QVQLVESGGGLVQAGGSLRLSCAASGRIFGSYAMGWYRQAPGKERELVAAISWRGTSTYYADSVKGRFTISRDNAKNTVYLQMNSLIPEDTAVYYCAARGLWPYDYWGQGSQVTVSS | low polyreactivity
QVQLVESGGGLVQAGGSLRLSCAASGRIFGSYAMGWYRQAPGKERELVATIRRSGGRTYYADSVKGRFTISRDNAKNTVYLQKTSLKPADTAVYYCAKDEWGNIRHERDYWGQGTQVTVSS | low polyreactivity
QVQLVESGGGLVQAGGSLRLSCAASGRIFGSYAMGWYRQAPGKERELVATITFGGGSTYYAESEKGRFTISRDNAKNTVYLQMNSLKPEDTAVYYCAADSGYLGIYGDEYSWGQGTQVTVSS | low polyreactivity
QVQLVESGGGLVQAGGSLRLSCAASGRIFGSYTMGWYRQAPGKERELVAAISWSGGNTYYADSVKGRFTISRDNAKNTVYLLMNSQKPEDTAVYYCNALYYRPPKWYGYWGQGTQVTVSS | high polyreactivity
QVQLVESGGGLVQAGGSLRLSCAASGRIFGTNAMGWYIQAPGKERELVADITSGGSTNYADSVKGRFTISRDNAKNTVYLQMNSLKPEDTAVYYCAADVIGDLRWYRDEYWGQGTQVTVSS | low polyreactivity
QVQLVESGGGLVQAGGSLRLSCAASGRIFGTNAMGWYRQAHGKERELVADITSGGSTNYADSVKGRFTISRDNAKNTVYLQMNSLKPEDTAVSYCAADVIGDLPWYRDEYWGQGTQVTVSS | low polyreactivity
QVQLVESGGGLVQAGGSLRLSCAASGRIFGTYAMGWYRQAPGKERELVASISYSDGSTYADSVKGRFTISRDNAKNTVYLQMNSLKPEDTAVYYCAADVYYYAQSEDGYWGQGTQVTVSS | low polyreactivity
QVQLVESGGGLVQAGGSLRLSCAASGRIFGVNAMGLYRQAPGKERELVAVISSGGSTYYADSVKGRFTISRDNAKNTVYLQMNSLKPEDTAVYYCNAVVGRWFPYNLSDYWGQGTQVTVSS | low polyreactivity
QVQLVESGGGLVQAGGSLRLSCAASGRIFGVYAMGRYRQAPGKERELVAGINGGDSTYYADSVKGRFTISRDNAKNTVYLQMNSLKAEDTAVYYCAAEADESGSNYDYWGQGTQVTVSS | low polyreactivity
QVQLVESGGGLVQAGGSLRLSCAASGRIFGVYAMGWYRQAPGKEREFVARISWHGGRTYYADSVKGRFTISRDNAKNTVYLQMNSLKPEDTAVYYCAADHGYPSRLDYWGQGTQVTVSS | high polyreactivity
QVQLVESGGGLVQAGGSLRLSCAASGRIFGVYAMGWYRQAPGKERELVAAIDSSDASTYYADSVKGRFTISRDNAKNTVYLQMNSLKPEDTAVYYCAADNPAAVYGYDYWGQGTQVTVSS | low polyreactivity
QVQLVESGGGLVQAGGSLRLSCAASGRIFGVYAMGWYRQAPGKERELVAAIDSSDGSTYYADSVKGRFTISRDNAKNTVYLQMNSLKPEDTAVYYCAADTPAAVYGYDYWGQGTQVTVSS | low polyreactivity
